Assay [1] addresses DR1-restricted TCR HA1.7. Kind of assay: flow cytometry: HA1.7-transduced primary CD4+ T cells stained with PE wild-type DR1 dextramer and anti-CD4.
For assay [2], the target named is DR1-restricted TCR HA1.7. Kind of assay: flow cytometry: TCR-transduced primary human T cells stained with PE class II dimer and anti-CD4. For orientation: In flow cytometry, cells or beads pass a laser one at a time.

CLIP, DR1 dextramer (peptide-MHC) had a percent of cells in the dextramer+ CD4+ quadrant in assay [1] of 0.1%. For the substance “Control (DR1 L114W/V143M+2reps dimer) (peptide-MHC)”, the percent of cells in the dimer+ CD4+ quadrant in assay [2] stood at 0.1%.

Source of the values: patent US20220281949A1.
